Assay results reported in publication PMC8613188, “Structural insights into bifunctional thaumarchaeal crotonyl-CoA hydratase and 3-hydroxypropionyl-CoA dehydratase from Nitrosopumilus maritimus” (Scientific Reports, 2021).

Biological target: the molecule itself
Assay: crystal structure; apo form, 2.15 Å, space group P32, 6 monomers in the asymmetric unit; crystals from 0.2 M MgCl2, 0.1 M sodium citrate tribasic dihydrate pH 5, 10% w/v PEG, BME added; data at 100 K

B1: Nmar_1308 protein, bifunctional crotonyl-CoA hydratase (CCAH) and 3-hydroxypropionyl-CoA dehydratase (3HPD) from Nitrosopumilus maritimus SCM1 (enzyme)
chain: MSLVTTSTSDGICTVKINRPDKLNAMNTDVAKELIKTFEELNHNDDVKVIILTGEGEKAFSAGADIEYMSKISADESVEYAKTGQLVTATVELVKQPTIAAVNGFALGGGCELAMSCDIRIAADTAKLGQPEVTIGVPPGWGGTQRLMRIVGIAKAKELVYTGKMIKAEEAKEIGLVNHVVPLASLQEEALKMAQQIAGNSTMGVQMSKVAINKGRNADLDTGLGLEILAWRNCFTHPDRQERMTAFVNKSKK
notes: Protein encoded by Nmar_1308 of Nitrosopumilus maritimus SCM1; codon-optimized gene construct from Genscript in pET28a (NdeI/BamHI); 229-237 residues modeled per chain in PDB 7EUM; Homohexamer (dimer of trimers) in the crystal; source: E. coli BL21(Rosetta-2), purified (Ni-NTA, thrombin cleavage, reverse Ni-NTA, Superdex 200); not shown: His6, N-terminal, cleaved
**Q.** How did the “stoichiometry N” value turn out when B1 was run?
**A.** Its value is 6.
